Results on three molecules are retold here after patent US20190169308A1 (ALLIGATOR BIOSCIENCE, published 2019).

In assay [1] the target is T1, cynomolgus 5T4 on transfected CHO cells (Macaca mulatta (cynomolgus), UniProt F7CT46 35-420).
T1 construct: also called cyno5T4; cy5T4
T1 sequence: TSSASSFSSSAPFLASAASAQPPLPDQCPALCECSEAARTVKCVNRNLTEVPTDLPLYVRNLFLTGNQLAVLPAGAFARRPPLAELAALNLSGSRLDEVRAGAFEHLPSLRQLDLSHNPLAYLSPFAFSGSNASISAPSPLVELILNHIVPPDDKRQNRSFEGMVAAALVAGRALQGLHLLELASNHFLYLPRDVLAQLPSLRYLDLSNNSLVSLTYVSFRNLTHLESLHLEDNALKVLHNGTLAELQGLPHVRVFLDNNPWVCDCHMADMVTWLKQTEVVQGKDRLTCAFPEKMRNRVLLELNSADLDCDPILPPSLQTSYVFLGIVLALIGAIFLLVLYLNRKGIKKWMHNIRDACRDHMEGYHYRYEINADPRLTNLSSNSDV
Kind of assay: flow cytometry, 5T4-transfected CHO cells. The method, then:
(§1) The potency of 5T4 antibodies in binding to cynomolgus 5T4 was determined by flow cytometry. CHO cells were stably transfected with […] (cynomolgus) 5T4. […] Samples were analysed either on a FACSCalibur or a FACSverse (BD Biosciences, Heidelberg, Germany) and mean fluorescence intensity (MFI) determined. […] To compare the EC50 values between human and cynomolgus 5T4, the cy5T4/hu5T4 ratio was calculated from the experiment with the full dose-response.
(Flow cytometry measures light scatter and fluorescence of single cells or particles in a stream.)

Assay [2] deals with T2, 5T4-Fc (human, UniProt Q13641 32-355, limits assumed).
T2 construct: obtained from Peter L. Stern, University of Manchester; also called h5T4-Fc; recombinant 5T4
T2 sequence (looked up): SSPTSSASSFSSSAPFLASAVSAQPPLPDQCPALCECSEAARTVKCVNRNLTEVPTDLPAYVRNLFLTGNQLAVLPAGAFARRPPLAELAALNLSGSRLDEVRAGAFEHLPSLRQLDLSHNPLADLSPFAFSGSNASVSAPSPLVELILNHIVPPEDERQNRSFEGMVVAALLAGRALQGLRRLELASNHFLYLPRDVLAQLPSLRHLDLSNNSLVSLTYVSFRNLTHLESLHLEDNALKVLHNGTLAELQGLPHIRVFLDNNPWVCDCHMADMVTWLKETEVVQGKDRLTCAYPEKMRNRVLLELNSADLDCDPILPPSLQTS
Kind of assay: ELISA, coated 5T4-Fc. The method, then:
ELISA was performed using a standard protocol. Plates (#655074, Greiner Bio-One GmbH, Germany) were pre-coated with 0.5 μg/ml 5T4-Fc (obtained from Peter L. Stern, University of Manchester) overnight. 5T4 antibodies were diluted from 6 to 1.5×10⁻³ μg/ml in 1:4 dilutions and added in duplicates of 50 μl to each well. Binding was detected with rabbit anti-h kappa L-chain-HRP (P0129, Dako Denmark) and the ELISA was developed with SuperSignal ELISA PICO Chemiluminescent substrate (Thermo Scientific Pierce, Rockford, Ill. USA) for 2-10 minutes and read in an automated microplate based multi-detection reader (FLUOstar OPTIMA, Netherlands).

The target of assay [3] is T3, human/mouse 5T4 chimera E4.
T3 construct: on transfected CHO cells
Kind of assay: flow cytometry, cells with human/mouse 5T4 chimera. The procedure:
(§2) Epitope mapping was performed by investigation of loss of binding by the antibodies using a panel of human/mouse chimeric 5T4 constructs by flow cytometry. […] Two strategies were used for the epitope mapping as illustrated in FIG. 5. In one approach, seven human/mouse 5T4 chimeras were constructed based on dividing 5T4 into seven different domains (FIG. 5). By replacing each domain with the corresponding mouse sequence seven human/mouse 7 5T4 human/mouse chimeras were generated. The chimeras were generated using the human protein 5T4 sequence NP_006661.1 (reference mRNA sequence NM_006670.4) and the corresponding mouse sequence NP_035757.2 (reference mRNA sequence NM_011627.4). The human/mouse chimeric DNA constructs, as well as human and mouse wild-type 5T4, were cloned into pcDNA3.1 expression vectors. […] As controls human 5T4 and mouse 5T4-transfected cells were used. For flow cytometric analysis, cells were stained with different 5T4 antibodies diluted in FACS buffer (PBS, 0.5% BSA). […] Samples were analysed by FACSverse (BD Biosciences, Heidelberg, Germany) and % positive cells were determined. To compensate for variations in % 5T4 positive cells in the various transfected populations, binding levels were normalized within each chimera by dividing % positive cells for each clone with % positive cells for the clones resulting in the highest % positive cells (% pos cellscloneX/% positive cellsₘₐₓ). A normalized value ≤0.75 was defined as mAb binding being dependent on the replaced region, whereas a normalized value ≤0.25 was defined as complete dependence.

The target of assay [4] is T4, human/mouse 5T4 chimera E3.
T4 construct: on transfected CHO cells
Kind of assay: flow cytometry, cells with human/mouse 5T4 chimera. The method, then: as §2

Assay [5] deals with T5, human/mouse 5T4 chimera E1.
T5 construct: on transfected CHO cells
Put plainly: flow cytometry, cells with human/mouse 5T4 chimera. The procedure: as §2

For assay [6], the target named is T6, human/mouse 5T4 chimera E6.
T6 construct: on transfected CHO cells
Kind of assay: flow cytometry, cells with human/mouse 5T4 chimera. The method, then:
as §2

The target of assay [7] is T7, human/mouse 5T4 chimera E7.
T7 construct: on transfected CHO cells
Put plainly: flow cytometry, cells with human/mouse 5T4 chimera. The method, then: as §2

Assay [8] concerns the target T8, human/mouse 5T4 chimera E2.
T8 construct: on transfected CHO cells
Kind of assay: flow cytometry, cells with human/mouse 5T4 chimera. The procedure: as §2

Assay [9] addresses T9, human/mouse 5T4 chimera E5.
T9 construct: on transfected CHO cells
Kind of assay: flow cytometry, cells with human/mouse 5T4 chimera. The method, then:
as §2

Assay [10] deals with T1, cynomolgus 5T4 on transfected CHO cells. Put plainly: flow cytometry, cynomolgus 5T4-transfected CHO cells. The procedure:
as §1

In assay [11] the target is T10, mouse 5T4 on transfected cells (mouse, UniProt Q9Z0L0 32-426).
T10 construct: whole, on cells; also called murine 5T4
T10 sequence (looked up): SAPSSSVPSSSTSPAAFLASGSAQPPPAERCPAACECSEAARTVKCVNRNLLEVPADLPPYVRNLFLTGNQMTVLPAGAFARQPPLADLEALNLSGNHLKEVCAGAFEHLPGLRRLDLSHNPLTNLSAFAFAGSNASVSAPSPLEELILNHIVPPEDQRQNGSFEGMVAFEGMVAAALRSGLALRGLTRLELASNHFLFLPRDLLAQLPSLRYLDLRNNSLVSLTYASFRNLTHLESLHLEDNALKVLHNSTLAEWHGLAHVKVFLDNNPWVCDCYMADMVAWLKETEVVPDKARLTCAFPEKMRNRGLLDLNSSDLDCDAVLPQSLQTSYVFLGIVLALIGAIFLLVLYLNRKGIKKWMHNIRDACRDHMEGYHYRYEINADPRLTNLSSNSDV
Put plainly: flow cytometry, mouse 5T4-transfected cells.

For the next assay, the target named is T11, 5T4 (SPR antigen) (UniProt Q13641 32-355, limits assumed, biotinylated on the MASS-1 platform).
T11 construct: also called biotinylated 5T4
T11 sequence (looked up): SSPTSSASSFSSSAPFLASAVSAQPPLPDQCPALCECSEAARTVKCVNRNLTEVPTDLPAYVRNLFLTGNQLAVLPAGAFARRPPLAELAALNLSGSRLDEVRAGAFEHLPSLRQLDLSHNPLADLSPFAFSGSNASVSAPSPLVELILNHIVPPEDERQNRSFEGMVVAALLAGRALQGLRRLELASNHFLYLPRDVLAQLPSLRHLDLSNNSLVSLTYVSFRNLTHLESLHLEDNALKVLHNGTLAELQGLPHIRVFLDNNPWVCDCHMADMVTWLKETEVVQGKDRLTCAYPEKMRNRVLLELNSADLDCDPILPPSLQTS
Kind of assay: SPR Biacore 3000, amine-coupled 5T4, mAb injected (bivalent). The procedure:
Binding kinetics of the 5T4-specific mAbs have been studied using two different SPR-based platforms, the Biacore 3000 (GE Healthcare) and the MASS-1 platform (Sierra Sensors). Briefly, 5T4 was captured at the sensor chip surface either via direct amine coupling (Biacore platform) or using a streptavidin coated chip and biotinylated 5T4 (MASS-1 platform). The different 5T4-specific mAbs were then injected over the chip in increasing concentrations and the association and dissociation rates studied in real time. A 1:1 Langmuir model was used for curve fitting.
For orientation: In SPR one partner is held on a chip, and binding of the other changes the refractive index at the surface.

The target of assay [12] is T12, human 5T4 on transfected cells (human, UniProt Q13641 32-420).
T12 construct: whole, on cells; also called B16-5T4; CHOh5T4
T12 sequence (looked up): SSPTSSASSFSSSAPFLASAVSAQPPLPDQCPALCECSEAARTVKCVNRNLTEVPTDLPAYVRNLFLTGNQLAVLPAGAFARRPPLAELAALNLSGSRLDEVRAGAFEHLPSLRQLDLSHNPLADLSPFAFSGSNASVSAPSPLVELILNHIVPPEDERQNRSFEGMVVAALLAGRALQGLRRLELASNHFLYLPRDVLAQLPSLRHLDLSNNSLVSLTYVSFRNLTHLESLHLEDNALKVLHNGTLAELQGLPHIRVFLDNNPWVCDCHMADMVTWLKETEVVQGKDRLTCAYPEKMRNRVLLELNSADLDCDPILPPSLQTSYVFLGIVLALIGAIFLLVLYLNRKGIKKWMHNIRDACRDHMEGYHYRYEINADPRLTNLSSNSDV
Put plainly: flow cytometry, 5T4-transfected B16 cells.

Assay [13] addresses T2, 5T4-Fc. Put plainly: dual ELISA: coated 5T4-Fc, detection with CD137-bio. The method, then:
Bispecific binding to both targets, CD137 and 5T4, was evaluated using a standard ELISA protocol. Plates (#655074, Greiner Bio-One GmbH, Germany) were pre-coated with 0.5 μg/ml 5T4-Fc (obtained from Professor Peter Stern, University of Manchester) overnight. CD137-5T4 bsAb were diluted from 8 to 2×10⁻³ μg/ml in 1:4 dilutions and added in duplicates of 50 μl to each well. CD137-bio (Ancell #502-030) was used as detection antibody at 0.5 μg/ml and the binding was detected with Streptavidin-HRP (Pierce #21126). The ELISA was developed with SuperSignal ELISA PICO Chemiluminescent substrate (Thermo Scientific Pierce, Rockford, Ill. USA) during 2-10 minutes and read in an automated microplate based multi-detection reader (FLUOstar OPTIMA, Netherlands).
On the technique in general: An ELISA detects its analyte on a solid surface through an enzyme-linked reagent.

B1: 1212/1213 (antibody, V domains shown)
VH: EVQLLESGGGLVQPGGSLRLSCAASGFTFSSYAMSWVRQAPGKGLEWVSYISSYGGYTSYADSVKGRFTISRDNSKNTLYLQMNSLRAEDTAVYYCARYHSGVLDYWGQGTLVTVSS
VL: DIQMTQSPSSLSASVGDRVTITCRASQSISSYLNWYQQKPGKAPKLLIYAASSLQSGVPSRFSGSGSGTDFTLTISSLQPEDFATYYCQQYYYHYLLTFGQGTKLEIK
One may read the EC50 as the midpoint of the concentration-response curve. Usually kon stands for a measure of how fast the partners come together. High values mean faster complex formation, low ones slower complex formation. In the case of B1, the “Ratio EC50cyno5T4/h5T4” value in assay [1] amounted to 140. Besides, the EC50 with 5T4-Fc [2] stood at 0.56 nM; in assay [10], 30.7 nM; in assay [12], 1.4 nM. Further, the “normalized % positive cells” value in assay [3] is 1; in assay [4], 0.93; in [5] it was 0.89; in assay [6] it was 0.03; in assay [7], 0.88; in assay [8], 0.9. For the same molecule, the “normalized % positive cells” value in assay [9] stood at 0.84. In addition, the binding result in assay [11] is “no binding”. This molecule registered a kon with 5T4 (SPR antigen) of 450000 M⁻¹ s⁻¹.

B2: 1626-1208 (bispecific antibody)
heavy: not shown
light: DIQMTQSPSSLSASVGDRVTITCRASQSISSYLNWYQQKPGKAPKLLIYAASSLQSGVPSRFSGSGSGTDFTLTISSLQPEDFATYYCQQGTGYGPLTFGQGTKLEIKRTVAAPSVFIFPPSDEQLKSGTASVVCLLNNFYPREAKVQWKVDNALQSGNSQESVTEQDSKDSTYSLSSTLTLSKADYEKHKVYACEVTHQGLSSPVTKSFNRGEC
notes: Morrison format IgG-scFv
B2: the EC50 with 5T4-Fc [13] came to 1.91 nM.

B3: 1626-1210 (bispecific antibody)
heavy: not shown
light: DIQMTQSPSSLSASVGDRVTITCRASQSISSYLNWYQQKPGKAPKLLIYAASSLQSGVPSRFSGSGSGTDFTLTISSLQPEDFATYYCQQGTGYGPLTFGQGTKLEIKRTVAAPSVFIFPPSDEQLKSGTASVVCLLNNFYPREAKVQWKVDNALQSGNSQESVTEQDSKDSTYSLSSTLTLSKADYEKHKVYACEVTHQGLSSPVTKSFNRGEC
notes: Morrison format IgG-scFv
For B3, the response with 5T4-Fc [13] was half-maximal at 0.4 nM (EC50).
